For experiment [1], the target named is human immunoglobulin G drug separated from human plasma (Gammagard, Baxter) (human). Description: SPR (Biacore 3000), human IgG immobilized on CM5 chip, ligand as analyte, 25 C, pH 7.4, 1:1 model. Background: SPR reads the build-up and loss of mass on a sensor chip optically.
Experiment [2] has the same target. The experiment is described as follows: SPR (Biacore) as in Example 3, human IgG immobilized on chip, 1:1 model.
The target of experiment [3] is human IgG (Gamma globulin, Nichiyaku) (human). The experiment is described as follows: affinity chromatography, ligand immobilized on HiTrap NHS-activated HP (6.5 mg/mL-gel), 1 mg/mL human IgG at 1.9 mL/min, 5% breakthrough.

The substance “C-K04R/K07R/G29A/K35R/K42R/K49R/K50R/K58G.1d (from pGEX-2T, Example 2) (designed binder)” had a Ka in experiment [1] of 4.8e+07 M⁻¹.

“C-K04R/K07D/G29A/K35R/K42R/K49R/K50H/K58G.1d (designed binder)” showed a Ka in experiment [1] of 1.3e+07 M⁻¹.

With “C-K04R/K07E/G29A/K35R/K42R/K49R/K50H/K58G.1d (designed binder)”, the Ka in experiment [1] was determined as 2.7e+07 M⁻¹.

“C-K04R/K07R/G29A/K35R/K42R/K49R/K50R/K58G.1d with Ser-Lys added at the C terminal (Brevibacillus, Example 4) (designed binder)” displayed a Ka in experiment [2] of 2.2e+07 M⁻¹. In experiment [3], this substance displayed a 5% antibody dBC of 25.7 mg/mL-gel.

Turning to “C-K04R/K07R/G29A/K35R/K42R/K49Q/K50R/K58G.1d (designed binder)”, the Ka in experiment [1] was determined as 3.3e+07 M⁻¹.

As for “C-K04R/K07E/G29A/K35R/K42R/K49R/K50R/K58G.1d (designed binder)”, the Ka in experiment [1] is 1.1e+07 M⁻¹.
